Test results reported in IntAct's records for PubMed 27599036.

B1: Ferrochelatase, mitochondrial (Homo sapiens), P22830 (parent)
chain: MRSLGANMAAALRAAGVLLRDPLASSSWRVCQPWRWKSGAAAAAVTTETAQHAQGAKPQVQPQKRKPKTGILMLNMGGPETLGDVHDFLLRLFLDRDLMTLPIQNKLAPFIAKRRTPKIQEQYRRIGGGSPIKIWTSKQGEGMVKLLDELSPNTAPHKYYIGFRYVHPLTEEAIEEMERDGLERAIAFTQYPQYSCSTTGSSLNAIYRYYNQVGRKPTMKWSTIDRWPTHHLLIQCFADHILKELDHFPLEKRSEVVILFSAHSLPMSVVNRGDPYPQEVSATVQKVMERLEYCNPYRLVWQSKVGPMPWLGPQTDESIKGLCERGRKNILLVPIAFTSDHIETLYELDIEYSQVLAKECGVENIRRAESLNGNPLFSKALADLVHSHIQSNELCSKQLTLSCPLCVNPVCRETKSFFTSQQL

Variants of: B1
Conditions: with pgrc1_human PGRMC1, O00264
pgrc1_human PGRMC1, O00264, sequence (O00264 whole entry): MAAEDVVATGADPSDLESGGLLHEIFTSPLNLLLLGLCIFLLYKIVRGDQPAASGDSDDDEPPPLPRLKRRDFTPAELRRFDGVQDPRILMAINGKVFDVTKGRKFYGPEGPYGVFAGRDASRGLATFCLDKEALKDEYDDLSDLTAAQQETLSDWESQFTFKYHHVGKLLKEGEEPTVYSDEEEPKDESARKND

effect of a mutation on the interaction | Variant
increasing interaction strength | MRSLGANMAAALRAAGVLLRDPLASSSWRVCQPWRWKSGAAAAAVTTETAQHAQGAKPQVQPQKRKPKTGILMLNMGGPETLGDVHDFLLRLFLDRDLMTLPIQNKLAPAIAKRRTPKIQEQYRRIGGGSPIKIWTSKQGEGMVKLLDELSPNTAPHKYYIGFRYVHPLTEEAIEEMERDGLERAIAFTQYPQYSCSTTGSSLNAIYRYYNQVGRKPTMKWSTIDRWPTHHLLIQCFADHILKELDHFPLEKRSEVVILFSAHSLPMSVVNRGDPYPQEVSATVQKVMERLEYCNPYRLVWQSKVGPMPWLGPQTDESIKGLCERGRKNILLVPIAFTSDHIETLYELDIEYSQVLAKECGVENIRRAESLNGNPLFSKALADLVHSHIQSNELCSKQLTLSCPLCVNPVCRETKSFFTSQQL [F110A]
disrupting interaction strength | MRSLGANMAAALRAAGVLLRDPLASSSWRVCQPWRWKSGAAAAAVTTETAQHAQGAKPQVQPQKRKPKTGILMLNMGGPETLGDVHDFLLRLFLDRDLMTLPIQNKLAPFIAKRRTPKIQEQYRRIGGGSPIKIWTSKQGEGMVKLLDELSPNTAPHKYYIGFRYVHPLTEEAIEEMERDGLERAIAFTQYPQYSCSTTGSSLNAIYRYYNQVGRKPTMKWSTIDRWPTHHLLIQCFADHILKELDHFPLEKRSEVVILFSAHSLPMSVVNRGDPYPQEVSATVQKVMERLEYCNPYRLVWQSKVGPMPWLGPQTDESIKGLCERGRKNILLVPIAFTSDHIKTLYELDIEYSQVLAKECGVENIRRAESLNGNPLFSKALADLVHSHIQSNELCSKQLTLSCPLCVNPVCRETKSFFTSQQL [E343K]
